# Measured values taken from patent US20080118487A1.
# Where no end group is shown, it is not given here.
# T1: recombinant myostatin (Example 4)
# T1 sequence (O14793 267-375, species assumed, looked up): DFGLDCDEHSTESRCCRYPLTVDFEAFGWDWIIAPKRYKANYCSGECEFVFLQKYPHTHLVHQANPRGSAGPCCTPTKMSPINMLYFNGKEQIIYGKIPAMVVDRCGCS
# T2: recombinant bovine mature myostatin (bovine) (UniProt O18836)
# T2 sequence (looked up): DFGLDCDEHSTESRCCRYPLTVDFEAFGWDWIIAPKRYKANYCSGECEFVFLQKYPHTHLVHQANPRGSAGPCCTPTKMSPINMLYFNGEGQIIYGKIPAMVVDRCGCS
# Key:
# [1] = target: T1, recombinant myostatin (Example 4); experiment: cell-based or functional assay
# [2] = target: T2, recombinant bovine mature myostatin (bovine); experiment: cell-based or functional assay
binder,measurement,setting,value
"recombinant ovine myostatin splice variant 65 (roMSV65) (peptide, not shown: small tags and cut ends) VHFYTPPYGQWIFHKERKIIFLEVYIQFCSILGEAVFKRQSKSIHFCQNFKIIACLCNTAAFRMK","rescue of myostatin inhibited myoblast proliferation (C2C12, methylene blue assay) (molar ratio roMSV65 to myostatin)",[1],20
"IIFLEVYIQFCSILGEAVFKRQSKSIHFCQNFKIIACLCNTAAFRMK (peptide, not shown: small tags and cut ends, ends and bridges not checked; also: 36-aa N-terminal pET100/D-TOPO tag (enterokinase site, Xpress epitope, His), letters not shown) [recombinant ovine MSV47 (roMSV47)]","rescue of myostatin inhibited myoblast proliferation (C2C12, methylene blue assay) (molar ratio roMSV47 to myostatin)",[2],1
same,restoring proliferation of C2C12 myoblasts inhibited by myostatin (molar ratio roMSV47 to myostatin),[2],10
"VHFPTPPNEEWIFFNVRRIIFLEVGFQFCSILGETALS (peptide, not shown: small tags and cut ends, also: 36-aa N-terminal pET100/D-TOPO tag (enterokinase site, Xpress epitope, His), letters not shown) [recombinant human MSV38 (rhMSV38)]",proliferation of primary human myoblasts inhibited by myostatin (molar ratio rhMSV38 to myostatin),[2],10
same,restoration of proliferation of human primary myoblasts inhibited by myostatin (methylene blue assay) (molar ratio rhMSV38 to myostatin),[2],1
